One data set addresses T1, purified p97 antigen (Homo sapiens, UniProt P08582).
T1 construct: Soluble p97 (amino acids 20-710 of human p97 precursor); 6xHis; made in house
T1 sequence (P08582 20-710): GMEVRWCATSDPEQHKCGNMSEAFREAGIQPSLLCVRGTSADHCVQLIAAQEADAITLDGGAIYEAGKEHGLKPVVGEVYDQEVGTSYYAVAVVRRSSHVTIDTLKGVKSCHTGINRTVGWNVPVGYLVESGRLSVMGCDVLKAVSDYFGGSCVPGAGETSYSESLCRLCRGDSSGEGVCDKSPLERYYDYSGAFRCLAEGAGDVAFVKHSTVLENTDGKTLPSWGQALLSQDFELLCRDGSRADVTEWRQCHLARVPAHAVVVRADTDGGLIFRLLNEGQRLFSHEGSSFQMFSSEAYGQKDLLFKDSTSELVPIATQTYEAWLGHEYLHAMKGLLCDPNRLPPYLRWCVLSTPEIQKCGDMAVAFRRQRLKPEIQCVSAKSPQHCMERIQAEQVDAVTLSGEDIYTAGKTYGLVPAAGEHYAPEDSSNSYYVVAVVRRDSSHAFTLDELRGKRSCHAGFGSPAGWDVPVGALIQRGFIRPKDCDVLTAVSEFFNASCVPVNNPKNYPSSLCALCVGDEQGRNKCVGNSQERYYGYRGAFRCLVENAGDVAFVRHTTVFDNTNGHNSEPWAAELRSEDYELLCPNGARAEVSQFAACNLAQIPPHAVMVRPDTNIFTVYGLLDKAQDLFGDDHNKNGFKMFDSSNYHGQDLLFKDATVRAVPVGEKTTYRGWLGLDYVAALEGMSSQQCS
Nature of the data set: size exclusion chromatography (SEC) binding assay, 2:1 p97 antigen to L49-sFv-bL. The note with it: purified protein after ion exchange. From the text: Double mutants FP960 and FP965 and triple mutant FP990 all show improved refolding activity in crude lysates compared to the parental molecule, and therefore, all three mutant molecules were selected for further analysis. Proteins were expressed at the 1L scale in shake flasks as described in Materials and Methods, supra. Inclusion bodies (IBs) were obtained at a typical yield of 25% (±10%) wet IB mass/wet cell mass. Renatured L49-sFv-bL was purified by aminophenylboronate chromatography, dialyzed into 10 mM Na2PO4 and loaded onto Macro-prep HS resin. Fusion proteins were eluted in a stepwise fashion employing 250 mM NaCl. […] Mutants FP965 and FP990 were greater than 95% monomeric as shown by SEC-HPLC. However, FP960 contained only 55% monomer after cation exchange purification, possibly indicating a key role for the lysine residue at position H39 in refolding. The parental molecule, FP95, was present as 2 bands following aminophenylboronate chromatography. After ion-exchange chromatography only the upper of these 2 bands was eluted. A size exclusion chromatography (SEC) binding assay was developed in which a 2:1 ratio of purified p97 antigen to purified L49-sFv-bL was mixed and analyzed by HPLC-SEC (data not shown).
A general note: In gel filtration, larger molecules generally elute earlier.

For another data set, the target named is T2, Recombinant p97 (Homo sapiens, UniProt P08582).
T2 construct: Soluble p97 (amino acids 20-710 of human p97 precursor); 6xHis; made in house
T2 sequence (P08582 20-710): T1 sequence (P08582 20-710)
Nature of the data set: binding affinity by surface plasmon resonance (Biacore 2000). The note with it: 25° C., immobilized p97, 1:1 model, error in last digit in parentheses. How it is done: The buffer used in the study was PBS, 0.005% P20, 0.2 mg/mi BSA. Antigen was immobilized on one flow cell surface of a CM5 sensor chip and the others were left blank to serve as reference surfaces. For each scFv, triplicates of 0, 0.5, 2.8, 8.3, 25, 75 and 225 nM were injected across the immobilized antigen. The association and dissociation phases were monitored for 1 and 20 minutes, respectively. The antigen surface was regenerated with four 18-second pulses of 2.5 mM NaOH between injections.
The binding affinities of double mutants FP960 and FP965 and triple mutants FP990 and FP999 were compared to the parental molecule by surface plasmon resonance. Recombinant p97 was immobilized on a BIACore CM5 sensor chip and varying concentrations of each scFv fusion protein were injected across the chip in triplicate.

A further data set addresses T3, p97 (Homo sapiens, UniProt P08582).
T3 sequence (P08582 20-709): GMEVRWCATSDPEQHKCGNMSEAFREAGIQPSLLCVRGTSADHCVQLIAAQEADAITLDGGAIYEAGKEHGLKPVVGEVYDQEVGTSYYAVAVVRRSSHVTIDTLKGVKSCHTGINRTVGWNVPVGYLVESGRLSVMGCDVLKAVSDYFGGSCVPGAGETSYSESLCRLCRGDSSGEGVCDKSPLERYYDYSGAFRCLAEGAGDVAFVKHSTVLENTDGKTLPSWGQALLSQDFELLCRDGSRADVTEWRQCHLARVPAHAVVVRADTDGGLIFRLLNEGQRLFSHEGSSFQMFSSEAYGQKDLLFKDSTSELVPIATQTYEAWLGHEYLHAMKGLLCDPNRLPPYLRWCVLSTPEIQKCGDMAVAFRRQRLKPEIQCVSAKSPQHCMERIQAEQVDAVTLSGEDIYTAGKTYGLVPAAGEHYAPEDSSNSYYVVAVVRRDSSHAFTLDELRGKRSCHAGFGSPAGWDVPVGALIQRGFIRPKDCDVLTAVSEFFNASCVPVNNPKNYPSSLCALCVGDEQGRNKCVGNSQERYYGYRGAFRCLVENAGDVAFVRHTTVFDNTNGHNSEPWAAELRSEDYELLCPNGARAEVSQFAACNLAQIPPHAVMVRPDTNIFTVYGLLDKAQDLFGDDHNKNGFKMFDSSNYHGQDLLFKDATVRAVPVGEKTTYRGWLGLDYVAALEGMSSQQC
To be noted: parental molecule expressed in the E. coli periplasm; cited from earlier work.

The conditions of data set [1]: cited from earlier work.
Data set [2] has as its system H3677 human melanoma xenografts. To be noted: fusion protein 1 mg/kg i.v. followed 24 h later by C-Mel 100 mg/kg, q7dx3.

Here are results for four molecules from patent US20060160174A1, “Modified l49-sfv exhibiting increased stability and methods of use thereof” (priority 2002, published 2006).

Residue numbers refer to the chain shown, from its start. Names may count otherwise.

B1: FP95: parental (wt) L49-sFv-bL fusion protein refolded from E. coli inclusion bodies (protein)
scFv: MEVQLQESGPSLVKPSQTLSLTCSVTGDSITSGYWNWIRKFPGNKLEYMGYISDSGITYYNPSLKSRISITRDTSKNQYYLQLNFVTAEDTATYNCARRTLATYYAMDYWGQGTSVTVSSGSTSGSGKPGSGEGSTKGDFVMTQTPLSLPVSLGDQASISCRASQSLVHSNGNTYLHWYLQKPGQSPKLLIYRVSNRFSGVPDRFSGSGSGTDFTLKISRVEAEDLGVYFCSQSTHVPPTFGGGTKLEIKRTPVSEKQLAEVVANTITPLMKAQSVPGMAVAVIYQGKPHYYTFGKADIAANKPVTPQTLFELGSISKTFTGVLGGDAIARGEISLDDAVTRYWPQLTGKQWQGIRMLDLATYTAGGLPLQVPDEVTDNASLLRFYQNWQPQWKPGTTRLYANASIGLFGALAVKPSGMPYEQAMTTRVLKPLKLDHTWINVPKAEEAHYAWGYRDGKAVRVSPGMLDAQAYGVKTNVQDMANWVMANMAPENVADASLKQGIALAQSRYWRIGSMYQGLGWEMLNWPVEANTVVETSFGNVALAPLPVAEVNPPAPPVKASWVHKTGSTGGFGSYVAFIPEKQIGIVMLANTSYPNPARVEAAYHILEALQ
Take B1: in the data set with purified p97 antigen, the “antigen binding in SEC assay” value was “bound antigen completely”. Further, in the data set with Recombinant p97, the ka was 3.038(2) × 10^5 M^−1 s^−1 and the kd is 7.004(5) × 10^−4 s^−1.

B2: L49-sFv-bL: parental L49 single-chain Fv fused to Enterobacter cloacae β-lactamase, solubly expressed in the E. coli periplasm (Siemers et al., 1997) (protein)
scFv: B1 scFv
What is called Kd is the constant that tells how readily two partners part at equilibrium. For the molecule B2, in the data set with p97, the dissociation constant Kd is 1 nM. For the same molecule, the “tumor to blood ratio” value in data set [1] (24-48 hours after the fusion protein was administered) was 141-150 :1. In data set [1] (clearance from systemic circulation), the “terminal half-life t1/2β” value was 2.5 h.

B3: FP990: L49-sFv-bL triple mutant K H39 Q, F H82B S, N H91 Y (protein)
scFv: B1 scFv with K40Q, F85S, N95Y
Take B3: the tumor response result in data set [2] is reported as “significant tumor regression”. Moreover, in the data set with Recombinant p97, the ka is given as 4.476(1) × 10^5 M^−1 s^−1 and the kd was 7.819(3) × 10^−4 s^−1.

B4: FP999: triple mutant K H39 Q, F H82B S, N H91 Y in reverse bL-L49-sFv orientation (β-lactamase at amino terminus) (protein)
chain: TPVSEKQLAEVVANTITPLMKAQSVPGMAVAVIYQGKPHYYTFGKADIAANKPVTPQTLFELGSISKTFTGVLGGDAIARGEISLDDAVTRYWPQLTGKQWQGIRMLDLATYTAGGLPLQVPDEVTDNASLLRFYQNWQPQWKPGTTRLYANASIGLFGALAVKPSGMPYEQAMTTRVLKPLKLDHTWINVPKAEEAHYAWGYRDGKAVRVSPGMLDAQAYGVKTNVQDMANWVMANMAPENVADASLKQGIALAQSRYWRIGSMYQGLGWEMLNWPVEANTVVETSFGNVALAPLPVAEVNPPAPPVKASWVHKTGSTGGFGSYVAFIPEKQIGIVMLANTSYPNPARVEAAYHILEALQMHGTKLMEVQLQESGPSLVKPSQTLSLTCSVTGDSITSGYWNWIRQFPGNKLEYMGYISDSGITYYNPSLKSRISITRDTSKNQYYLQLNSVTAEDTATYYCARRTLATYYAMDYWGQGTSVTVSSGSTSGSGKPGSGEGSTKGDFVMTQTPLSLPVSLGDQASISCRASQSLVHSNGNTYLHWYLQKPGQSPKLLIYRVSNRFSGVPDRFSGSGSGTDFTLKISRVEAEDLGVYFCSQSTHVPPTFGGGTKLEIKR
B4: the tumor response entry in data set [2] was “significant tumor regression”. In the data set with purified p97 antigen, the “antigen binding in SEC assay” value is recorded as “bound completely to antigen”. Besides, in the data set with Recombinant p97, the ka was 3.373(3) × 10^5 M^−1 s^−1 and the kd is given as 5.755(7) × 10^−4 s^−1.
